Experimental data as given in patent US6355481.

Target: HAP1-A (Huntingtin Associated Protein 1-A) (UniProt P54256)
Assay: cell-based or functional assay

HAP1-A (Huntingtin Associated Protein 1-A), sequence (P54256 other isoform, or with tags, fused parts or gaps limits assumed): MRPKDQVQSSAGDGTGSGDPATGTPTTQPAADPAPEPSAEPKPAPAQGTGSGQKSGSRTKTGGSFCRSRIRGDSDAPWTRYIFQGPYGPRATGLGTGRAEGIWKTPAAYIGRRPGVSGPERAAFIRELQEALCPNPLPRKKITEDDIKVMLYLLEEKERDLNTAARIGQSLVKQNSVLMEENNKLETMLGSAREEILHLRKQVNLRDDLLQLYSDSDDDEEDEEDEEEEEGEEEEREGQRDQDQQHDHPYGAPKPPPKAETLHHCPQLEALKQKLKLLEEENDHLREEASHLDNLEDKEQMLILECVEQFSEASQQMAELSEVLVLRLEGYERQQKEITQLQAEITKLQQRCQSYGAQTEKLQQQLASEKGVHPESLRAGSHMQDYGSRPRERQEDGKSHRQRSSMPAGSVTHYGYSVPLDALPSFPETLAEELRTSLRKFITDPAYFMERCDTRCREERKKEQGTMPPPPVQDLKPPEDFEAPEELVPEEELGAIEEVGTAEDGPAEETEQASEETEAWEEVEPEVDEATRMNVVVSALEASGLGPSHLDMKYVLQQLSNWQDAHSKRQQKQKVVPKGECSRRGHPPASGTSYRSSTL

percentage of HAP1-A and huntingtin double-transfected PC12 cells with elongated neurites | Substance
15.2% | N-terminal region of human huntingtin protein (amino acids 1-253) with 73 glutamines (HD-73Q) (from UniProt P42858 1-253)
7.5% | N-terminal region of human huntingtin protein (amino acids 1-253) with 120 glutamines (HD-120Q) (from UniProt P42858 1-253)
